Test results: PMC6821933, “IMP-68, a Novel IMP-Type Metallo-β-Lactamase in Imipenem-Susceptible Klebsiella pneumoniae” (mSphere, 2019)

What was measured:
[1] = tested on: T1, IMP-11; test: spectrophotometric initial hydrolysis rates, […] nm, Michaelis-Menten; type: biochemical; settings: 50 mM sodium phosphate pH 7.0, 50 μM ZnCl2, 24 ± 1 °C
T1 construct: gene blaIMP-11; signal peptide (first 19 aa) removed; His tag cut off with PreScission protease; expressed in E. coli Rosetta II

[2] = tested on: T1, IMP-11; test: as above; type: biochemical; settings: 50 mM sodium phosphate pH 7.0, 50 μM ZnCl2, 24 ± 1 °C; remark: listed apart in the source
[3] = tested on: T1, IMP-11; test: as above; type: biochemical; settings: 50 mM sodium phosphate pH 7.0, 50 μM ZnCl2, 24 ± 1 °C; remark: listed apart in the source
[4] = tested on: CC(C)(O/N=C(\C(=O)N[C@@H]1C(=O)N2C(C(=O)[O-])=C(C[n+]3ccccc3)CS[C@H]12)c1csc(N)n1)C(=O)O; test: purified protein; type: biochemical, Klebsiella pneumoniae; settings: 50 mM sodium phosphate pH 7.0, 50 μM ZnCl2, 24 ± 1 °C, 24.0 °C
[5] = tested on: CC1(C)S[C@@H]2[C@H](NC(=O)[C@H](N)c3ccccc3)C(=O)N2[C@H]1C(=O)O; test: purified protein; type: biochemical, Klebsiella pneumoniae; settings: 50 mM sodium phosphate pH 7.0, 50 μM ZnCl2, 24 ± 1 °C, 24.0 °C
[6] = tested on: CO/N=C(\C(=O)N[C@@H]1C(=O)N2C(C(=O)O)=C(COC(C)=O)CS[C@H]12)c1csc(N)n1; test: purified protein; type: biochemical, Klebsiella pneumoniae; settings: 50 mM sodium phosphate pH 7.0, 50 μM ZnCl2, 24 ± 1 °C, 24.0 °C
[7] = tested on: C[C@@H](O)[C@H]1C(=O)N2C(C(=O)O)=C(SCCN=CN)C[C@H]12; test: purified protein; type: biochemical, Klebsiella pneumoniae; settings: 50 mM sodium phosphate pH 7.0, 50 μM ZnCl2, 24 ± 1 °C, 24.0 °C
[8] = tested on: C[C@@H](O)[C@H]1C(=O)N2C(C(=O)O)=C(S[C@@H]3CN[C@H](C(=O)N(C)C)C3)[C@H](C)[C@H]12; test: purified protein; type: biochemical, Klebsiella pneumoniae; settings: 50 mM sodium phosphate pH 7.0, 50 μM ZnCl2, 24 ± 1 °C, 24.0 °C

**Q.** Which Km [1] does the source give for `CC1(C)S[C@@H]2[C@H](NC(=O)[C@H](N)c3ccccc3)C(=O)N2[C@H]1C(=O)O` [Ampicillin] here?
**A.** Its Km is 830 ± 248 µM.

**Q.** For `CO/N=C(\C(=O)N[C@@H]1C(=O)N2C(C(=O)O)=C(COC(C)=O)CS[C@H]12)c1csc(N)n1` [Cefotaxime], which Km [2] is on record?
**A.** The Km was 11.8 ± 2.2 µM.

**Q.** `CC(C)(O/N=C(\C(=O)N[C@@H]1C(=O)N2C(C(=O)[O-])=C(C[n+]3ccccc3)CS[C@H]12)c1csc(N)n1)C(=O)O` [Ceftazidime] was tested. Which Km [2] did it give?
**A.** Its Km is 232 ± 18.9 µM.

**Q.** How did the Km [3] turn out when `C[C@@H](O)[C@H]1C(=O)N2C(C(=O)O)=C(SCCN=CN)C[C@H]12` [Imipenem] was run?
**A.** Its Km is 41 ± 18.4 µM.

**Q.** With `C[C@@H](O)[C@H]1C(=O)N2C(C(=O)O)=C(S[C@@H]3CN[C@H](C(=O)N(C)C)C3)[C@H](C)[C@H]12` [Meropenem] as the molecule, how does the Km [3] read?
**A.** Its Km is 14.8 ± 2.8 µM.

**Q.** Which Km [4] does the source give for IMP-68 (Klebsiella pneumoniae) here?
**A.** The Km was 326 ± 131 µM.

**Q.** And the kcat [4]?
**A.** The kcat was 3.9 ± 2.1 s⁻¹.

**Q.** And the kcat/Km [4]?
**A.** The kcat/Km was 12000 M⁻¹ s⁻¹.

**Q.** And the Km [5]?
**A.** The Km was 465 ± 200 µM.

**Q.** And the kcat [5]?
**A.** Its kcat is 1.7 ± 0.44 s⁻¹.

**Q.** And the kcat/Km [5]?
**A.** Its kcat/Km is 3700 M⁻¹ s⁻¹.

**Q.** What about the Km [6] of the same molecule?
**A.** Its Km is 10.3 ± 2.3 µM.

**Q.** What about the kcat [6] of the same molecule?
**A.** The kcat was 25.7 ± 1.3 s⁻¹.

**Q.** And the kcat/Km [6]?
**A.** The kcat/Km was 2.5e+06 M⁻¹ s⁻¹.

**Q.** And the Km [7]?
**A.** Its Km is 347 ± 52.2 µM.

**Q.** What about the kcat [7] of the same molecule?
**A.** Its kcat is 36.7 ± 7.8 s⁻¹.

**Q.** And the kcat/Km [7]?
**A.** Its kcat/Km is 110000 M⁻¹ s⁻¹.

**Q.** And the Km [8]?
**A.** The Km was 10.1 ± 0.94 µM.

**Q.** What about the kcat [8] of the same molecule?
**A.** The kcat was 9.7 ± 1.7 s⁻¹.

**Q.** And the kcat/Km [8]?
**A.** Its kcat/Km is 890000 M⁻¹ s⁻¹.
